In patent US20240325526A1:
Where a chain is given by its changes, count along the chain named.

T1: IL1B_FL (Mus musculus wild-type pro-IL1β)
T1 chain: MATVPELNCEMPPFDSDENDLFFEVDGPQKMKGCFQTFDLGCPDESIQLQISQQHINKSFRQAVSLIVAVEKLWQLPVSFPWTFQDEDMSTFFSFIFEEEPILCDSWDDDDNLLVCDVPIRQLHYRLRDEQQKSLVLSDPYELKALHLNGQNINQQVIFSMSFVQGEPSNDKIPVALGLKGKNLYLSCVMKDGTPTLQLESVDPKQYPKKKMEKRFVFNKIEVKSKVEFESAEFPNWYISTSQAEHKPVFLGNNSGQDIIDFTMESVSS

B1: CASP1_RV2_D143A (protein)
chain: MSEEDFLTDAIFEDDGIKKAHIEKDFIAFCSSTPDNVSWRHPVRGSLFIESLIKHMKEYAWSCDLEDIFRKVRFSFEQPEFRLQMPTADRVTLTKRFYLFPGHLLVCDVPIRAPSAETFVATEDSKGGHPSSSETKEEQNKEAGTFPGLTGTLKFCPLEKAQKLWKENPSEIYPIMNTTTRTRLALIICNTEFQHLSPRVGAQVDLREMKLLLEDLGYTVKVKENLTALEMVKEVKEFAACPEHKTSDSTFLVFMSHGIQEGICGTTYSNEVSDILKVDTIFQMMNTLKCPSLKDKPKVIIIQACRGEKQGVVLLKD
B2: CASP1_RV2_D108A (protein)
chain: B1 chain with D108A, A143D
B3: CASP1_RV2_D124A (protein)
chain: B1 chain with D124A, A143D
B4: CASP1_RV2_D108A_D124A_D143A (protein)
chain: B1 chain with D108A, D124A
B5: hCASP1_RV2_D108A (protein)
chain: MGNLSLPTTEEFEDDAIKKAHIEKDFIAFCSSTPDNVSWRHPTMGSVFIGRLIEHMQEYACSCDVEEIFRKVRFSFEQPDGRAQMPTTERVTLTRCFYLFPGHAYVHAAPVRDQTSGNYLNMQDSQGVLSSFPAPQAVQDNPAMPTSSGSEGNVKLCSLEEAQRIWKQKSAEIYPIMDKSSRTRLALIICNEEFDSIPRRTGAEVDITGMTMLLQNLGYSVDVKKNLTASDMTTELEAFAHRPEHKTSDSTFLVFMSHGIREGICGKKHSEQVPDILQLNAIFNMLNTKNCPSLKDKPKVIIIQACRGDSPGVVWFKD
B6: hCASP1_RV2_D124A (protein)
chain: B5 chain with A108D, D124A
B7: hCASP1_RV2_D140A (protein)
chain: B5 chain with A108D, D140A

Columns and labels:
[1] = biological target: IL1B_FL (Mus musculus wild-type pro-IL1β) (Mus musculus) (UniProt P10749); test: cell-based or functional assay
[2] = biological target: T1, IL1B_FL (Mus musculus wild-type …)
[3] = biological target: hIL1B_FL (human wild-type pro-IL1β)

| Molecule | ability to process pro-IL1β (data not shown) [2] | ability to process pro-IL1β (data not shown) [3] | also measured |
| --- | --- | --- | --- |
| CASP1_RV2 (constitutively active murine caspase-1, p10 and p20 domain reversal, N-terminal p20 remnant removed) (from UniProt P29452 92-296) (enzyme) | – | – | potency against CASP1 WT; IL-1β and LDH activity in supernatants of B16-F10 cells co-transfected with pro-IL1β plasmid [1]: 30 fold |
| B1 | did not significantly affect their ability to process pro-IL1β | – | – |
| B2 | did not significantly affect their ability to process pro-IL1β | – | – |
| B3 | did not significantly affect their ability to process pro-IL1β | – | – |
| B4 | did not significantly affect their ability to process pro-IL1β | – | – |
| B5 | – | did not significantly affect their ability to process pro-IL1β | – |
| B6 | – | did not significantly affect their ability to process pro-IL1β | – |
| B7 | – | did not significantly affect their ability to process pro-IL1β | – |
